Patent US20200339648A1 (University of Washington, published 2020)
Residue numbers refer to the chain shown, from its start.

T1: mouse IL-2Rβγc on murine cells (CTLL-2 T cells, primary CD4+ T cells) (mouse, UniProt P16297 27-539; P34902 23-369)
T1 sequence (looked up) 1: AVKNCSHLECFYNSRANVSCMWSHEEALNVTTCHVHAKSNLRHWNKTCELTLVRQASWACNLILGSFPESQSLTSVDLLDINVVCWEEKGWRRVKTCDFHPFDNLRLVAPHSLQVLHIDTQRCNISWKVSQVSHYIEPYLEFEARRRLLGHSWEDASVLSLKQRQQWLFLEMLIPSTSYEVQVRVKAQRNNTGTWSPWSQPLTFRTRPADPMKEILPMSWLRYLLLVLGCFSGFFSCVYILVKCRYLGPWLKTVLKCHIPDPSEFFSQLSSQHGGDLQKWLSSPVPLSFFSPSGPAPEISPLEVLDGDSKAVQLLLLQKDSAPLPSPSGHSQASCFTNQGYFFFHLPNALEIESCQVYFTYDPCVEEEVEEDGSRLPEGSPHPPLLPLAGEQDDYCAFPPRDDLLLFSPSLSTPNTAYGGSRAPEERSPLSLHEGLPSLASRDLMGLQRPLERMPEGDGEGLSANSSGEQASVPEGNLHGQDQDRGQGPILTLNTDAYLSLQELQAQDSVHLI
T1 sequence (looked up) 2: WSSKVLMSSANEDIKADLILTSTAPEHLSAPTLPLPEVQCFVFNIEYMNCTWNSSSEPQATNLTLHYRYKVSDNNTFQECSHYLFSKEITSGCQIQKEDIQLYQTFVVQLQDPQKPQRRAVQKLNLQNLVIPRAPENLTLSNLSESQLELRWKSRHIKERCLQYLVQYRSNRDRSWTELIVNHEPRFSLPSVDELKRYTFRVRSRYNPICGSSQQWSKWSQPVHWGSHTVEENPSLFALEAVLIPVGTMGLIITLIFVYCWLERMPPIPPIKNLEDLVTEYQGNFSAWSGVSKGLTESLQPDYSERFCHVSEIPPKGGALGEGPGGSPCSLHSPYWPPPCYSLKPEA

T2: human IL-2 receptor βγc heterodimer (hIL-2Rβγc), soluble (human, UniProt P14784 27-240; P31785 23-254, biotin on the C-terminal biotin acceptor peptide)
T2 construct: also called HsIL-2Rβγc; hIL-2Rβνc
T2 sequence 1: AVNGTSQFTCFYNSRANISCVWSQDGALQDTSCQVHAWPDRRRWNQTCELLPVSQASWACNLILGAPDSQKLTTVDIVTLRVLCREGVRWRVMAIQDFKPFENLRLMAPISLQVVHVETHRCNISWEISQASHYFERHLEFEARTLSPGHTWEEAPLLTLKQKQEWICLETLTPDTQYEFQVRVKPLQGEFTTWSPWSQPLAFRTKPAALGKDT
T2 sequence 2: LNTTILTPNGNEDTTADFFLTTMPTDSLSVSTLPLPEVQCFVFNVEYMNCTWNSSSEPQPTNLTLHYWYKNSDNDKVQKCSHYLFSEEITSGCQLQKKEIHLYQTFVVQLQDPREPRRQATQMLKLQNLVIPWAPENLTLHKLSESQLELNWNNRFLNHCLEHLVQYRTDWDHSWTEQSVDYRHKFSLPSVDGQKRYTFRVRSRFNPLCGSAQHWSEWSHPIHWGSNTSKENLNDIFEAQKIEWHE

T3: mouse IL-2 receptor βγc heterodimer (mIL-2Rβγc), soluble (mouse, UniProt P16297 27-240; P34902 23-263, biotin on the C-terminal biotin acceptor peptide)
T3 construct: extracellular domain; also called MmIL-2Rβγc; mIL-2Rβνc
T3 sequence 1: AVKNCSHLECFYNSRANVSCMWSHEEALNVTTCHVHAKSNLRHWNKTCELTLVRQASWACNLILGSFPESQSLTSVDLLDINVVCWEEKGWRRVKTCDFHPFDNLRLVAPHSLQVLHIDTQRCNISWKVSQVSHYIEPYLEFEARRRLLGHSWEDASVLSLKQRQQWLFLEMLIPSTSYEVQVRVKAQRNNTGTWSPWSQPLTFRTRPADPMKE
T3 sequence 2: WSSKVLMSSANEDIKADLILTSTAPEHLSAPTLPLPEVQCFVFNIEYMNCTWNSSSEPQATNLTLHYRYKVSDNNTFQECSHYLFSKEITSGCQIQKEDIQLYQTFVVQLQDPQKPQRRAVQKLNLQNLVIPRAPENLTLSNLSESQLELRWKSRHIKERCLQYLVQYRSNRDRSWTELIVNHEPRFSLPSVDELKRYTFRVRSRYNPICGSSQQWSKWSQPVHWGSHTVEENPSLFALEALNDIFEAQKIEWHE

T4: mouse IL-2 receptor β subunit (mIL-2Rβ) (mouse, UniProt P16297 27-240, biotin on the C-terminal biotin acceptor peptide)
T4 construct: extracellular domain; Biotinylated form for SPR; also called MmIL-2Rβ; murine IL-2Rβ
T4 sequence: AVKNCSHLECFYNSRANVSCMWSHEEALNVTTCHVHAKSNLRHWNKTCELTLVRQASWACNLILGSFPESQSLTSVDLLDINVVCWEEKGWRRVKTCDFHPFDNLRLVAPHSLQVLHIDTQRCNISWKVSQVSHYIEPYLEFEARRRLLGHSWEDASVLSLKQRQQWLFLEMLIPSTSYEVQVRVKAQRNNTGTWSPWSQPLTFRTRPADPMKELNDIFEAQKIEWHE

B1: G1_neo2_40_1F_M3 (designed binder)
chain: STEKTQHAAEDALRDALMLRNLLNEPNEKLARIITTMQSWQFTEKIDGDGAQELAKEVEELQQEHEVRGIDVEDYASNLKVILLQLA
B2: G1_neo2_40_1F_M1 (designed binder)
chain: B1 chain with H7L, D11H, R20K, N21H, E44G, Q85H
B3: G1_neo2_40_1F_M2 (designed binder)
chain: B1 chain with E3K, K4N, H7L, R14L, V67E
B4: G2_neo2_40_1F_seq36_S12 (designed binder)
chain: PKKKIQLLAEHALFDLLMILNIVKTNSQNAEEKLEDYAYNAGVILEEIARLFESGDQKDEAEKAKRMKEWMKRIKDTASEDEQEEMANEIITILQSWNFS
B5: G2_neo2_40_1F_seq27_S24 (designed binder)
chain: TNKKAQLHAEFALYDALMLLNLSSESNERLNDIITWLQSIIFTGTYDPDMVKEAVKLADEIEDEMRKRKIDTEDYVVNLRYILQELA
B6: G2_neo2_40_1F_seq27_S18 (designed binder)
chain: B5 chain with K4E, D32R, T43Y, G44E, Y81L
B7: G2_neo2_40_1F_seq27_S22 (designed binder)
chain: B5 chain with N2K, K4D, Q6E, H8L, D32E, T43Y, K69G, V77S, Y81L
B8: G2_neo2_40_1F_seq29_S8 (designed binder)
chain: EDYYSNLKLILEELAREMERNGLSDKAEEWRQWKKIVERIRQIRSNNSDLNEAKELLNRLITYIQSQIFEVLEGVGETDQEKKEESWKKWELHLEHALLDVLMLLND
B9: G2_neo2_40_1F_seq29_S6 (designed binder)
chain: B8 chain with E73H, E91D, H93L
B10: G2_neo2_40_1F_seq29_S7 (designed binder)
chain: B8 chain with L9V, R59E, L72I, G74R, V75E

The binders below were run against T1, mouse IL-2Rβγc on murine cells (CTLL-2 …) (assay: cell-based or functional assay).

EC50 (CD25+) pSTAT5, murine T (CTLL-2, CD25+) cells | Binder
80 pM | B1
7 pM | B2
3.11 nM | B3

The binders below were run against T2, human IL-2 receptor βγc heterodimer … (assay: affinity maturation by yeast display for human and mouse IL-2Rβνc).
Experimental: (§1) The vector was linearized by 100 fold overdigestion by NdeI and XhoI (New England Biolabs) and then purified by gel extraction (Qiagen). The genes included 50 bases of overlap with the vector on both the 5′ and 3′ ends such that homologous recombination would place the genes in frame between the AGA2 gene and the myc tag on the vector. Yeast were grown in C-Trp-Ura media prior to induction in SGCAA media as previously described. […] After approximately 30 minutes, cells were washed again in chilled buffer, and then incubated on ice for 5 minutes with FITC-conjugated anti-c-Myc antibody (1 uL per 3×10⁶ cells) and streptavidin-phycoerythrin (1 uL per 100 uL volume of yeast). Yeast were then washed and counted by flow cytometry (Accuri C6) or sorted by FACS (Sony SH800).

binding result | Binder
binds | B4
binds | B5
binds | B6
binds | B7
binds | B8
binds | B9
binds | B10

The binders below were run against T3, mouse IL-2 receptor βγc heterodimer … in the same assay as above.
Experimental: as §1

binding result | Binder
binds | B4
binds | B5
binds | B6
binds | B7
binds | B8
binds | B9
binds | B10

The binders below were run against T4, mouse IL-2 receptor β subunit (mIL-2Rβ) (assay: SPR, equilibrium titration; biotinylated IL-2Rβ on streptavidin chip).
Experimental: (§2) Less than 100 response units (RU) of each ligand was immobilized to minimize mass transfer effects. […] Surface regeneration for all interactions was conducted using 15 s exposure to 1 M MgCl2 in 10 mM sodium acetate pH 5.5. SPR experiments were carried out in HBS-P+ buffer (GE Healthcare) supplemented with 0.2% bovine serum albumin (BSA) at 25° C. and all binding studies were performed at a flow rate of […] to prevent analyte rebinding. Data was visualized and processed using the Biacore T100 evaluation software version 2.0 (GE Healthcare). Equilibrium titration curve fitting and equilibrium binding dissociation (KD) value determination was implemented using GraphPad Prism assuming all binding interactions to be first order. Biolayer interferometry: binding data were collected in a Octet RED96 (ForteBio, Menlo Park, Calif.) and processed using the instrument's integrated software using a 1:1 binding model. […] Analyte proteins were diluted from concentrated stocks into binding buffer. After baseline measurement in binding buffer alone, the binding kinetics were monitored by dipping the biosensors in wells containing 100 nM of the designed protein (association) and then dipping the sensors back into baseline wells (dissociation).

Kd [nM] | Binder
402 | B1
214 | B2
2600 | B3

These binders were tested against T3, mouse IL-2 receptor βγc heterodimer … (assay: SPR, equilibrium titration; IL-2Rγ on streptavidin chip, saturating IL-2Rβ in solution).
Experimental: as §2

Kd [nM] | Binder
64.8 | B1
4.3 | B2
886 | B3
